In patent US20160200815A1:

Legend:
[1] = molecular target: human TIM-3 on cells (human) (UniProt Q8TDQ0); experiment: cell-based or functional assay
hTIM3-Fc WT (human) = experiment: ELISA, construct coated on plate
[2] = molecular target: hTIM3-Fc murine BC loop (human, BC loop replaced by mouse TIM-3); experiment: ELISA, construct coated on plate
[3] = molecular target: hTIM3-Fc murine CC′ loop (human, CC′ loop replaced by mouse TIM-3); experiment: ELISA, construct coated on plate
[4] = molecular target: hTIM3-Fc murine C′C″ loop (human, C′C″ loop replaced by mouse TIM-3); experiment: ELISA, construct coated on plate
[5] = molecular target: hTIM3-Fc murine DE loop (human, DE loop replaced by mouse TIM-3); experiment: ELISA, construct coated on plate
[6] = molecular target: hTIM3-Fc murine FG loop (human, FG loop replaced by mouse TIM-3); experiment: ELISA, construct coated on plate

anti-TIM-3 mAb F38-2E2 (BioLegend, 345010) (antibody)
IL-2 secretion by SEB-activated PBMCs (% of the activity of anti-PD-L1) [1]: 50 | Absorbance at 450 nm (hTIM3-Fc WT (human)): 1.34 A450 | Absorbance at 450 nm [2]: 1.23 A450 | Absorbance at 450 nm [3]: 0.094 A450 | Absorbance at 450 nm [4]: 1.48 A450 | Absorbance at 450 nm [5]: 0.978 A450 | Absorbance at 450 nm [6]: 1.48 A450
